Experimental data reported in the supplement of paper PMC12764529.
± gives the half width of the 95% confidence interval.

Legend:
[1] = folding stability dG unfold from trypsin proteolysis; higher = more stable
How it was run: (§1)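 Unfolding free energy was derived, per protease or combined, against a sequence-predicted unfolded-state K50 and a shared folded-state K50, starting from K50 inferred by Bayesian fitting of sequencing counts. Digestion with trypsin and chymotrypsin was carried out on designed mini-proteins under 80 residues without cysteine in a PA-tagged cDNA display construct. Only designs with AlphaFold2 dimer inter-PAE above 15 were kept.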

[2] = folding stability dG unfold from chymotrypsin proteolysis; higher = more stable
How it was run: as §1

[3] = folding stability dG unfold (combined trypsin and chymotrypsin); higher = more stable
How it was run: as §1

Sequence | folding stability dG unfold [1] [kcal/mol] | folding stability dG unfold [2] [kcal/mol] | folding stability dG unfold [3] [kcal/mol]
SKGKKTVTINFMLKVEDPEDLPPGQEVKIPPEFIDFLRDQGFKITEIKIRVVPPPDGDVYVMFSSTIEVDSA [r9_465_TrROS] | 1.99 ± 0.097 | 3.53 ± 0.1 | 2.88 ± 0.34
SKGTFMAMMPLDEIKEIVENFAKQGWNIKIKPKSIQPFPFPHNDEDGEPEPYPMVMVEVEIKIVPPGDPPSA [r9_991_TrROS] | 1.33 ± 0.024 | 1.89 ± 0.086 | 1.64 ± 0.097
SKIEIEVFPEEGFIRIRLEAENLTEEELKDAIIEFIKSLGFPAEVEILRIEPSGNTIRIEALVKVEPGYLSA [r9_347_TrMRF] | 3.27 ± 0.12 | 2.673 ± 0.022 | 2.97 ± 0.093
SKIRIIRPERSLEIDLPKSARIEFDPETRRIYFINPDGERLEFPLGPNAVIIPGDDEITIIDPPASPENPSA [r9_653_TrMRF] | 2.21 ± 0.038 | 3.68 ± 0.042 | 3.19 ± 0.079
SKKIKIILRYPDGWYVKAEMEVPNGKERDIWFPNPEEAIEWAKTIARQFNPGVEIEDIETVPPDDLPPNFSA [r9_137_TrROS] | 1.21 ± 0.084 | 1.86 ± 0.077 | 1.61 ± 0.23
SKKKTLKIVDKETNVVIEMTAEELAEKLGLSVEDLEIEVVDLKTKEVKTIKIKLPKPKPEEKKKVKEEEKSA [r9_819_TrROS_Hall] | -0.336 ± 0.23 | 1.18 ± 0.046 | 0.75 ± 0.15
SKKKVTIEIEIVVRVPEGDELKNMTAEELAALLAEELGVEVEIVEVELVEYDEETGEYYVRIKVKITFPESA [r9_107_TrROS_Hall] | 2.95 ± 0.17 | 2.83 ± 0.13 | 2.76 ± 0.14
SKKPKLKIEIEIPEITNMQPDPDNGKYTMRVPFRIKIEWKDNGKEREVDIPIPMNMTVDDARDQLKDLLKSA [r9_656_TrROS] | 0.629 ± 0.044 | 1.57 ± 0.16 | 1.1 ± 0.13
SKKTVTIELYVPNMTPEQLRALLEALGYKVKKEEFDEDRGVVRLTVELPEDGTTITITIVRPPLPPGEKPSA [r9_1090_TrROS_Hall] | 2.25 ± 0.12 | 2.54 ± 0.046 | 2.59 ± 0.12
SKKVEIKIKVERNEDGYLTVTIEIRAETEEELLEAAKELAKALFPEDVEIRVEKLPDGTVKITIVVKLPPSA [r9_646_TrROS_Hall] | 2.65 ± 0.15 | 1.9 ± 0.11 | 2.29 ± 0.14
SKKVKITEITFPEGATFDGKKVTVTIKIVDEETGTVTITEITVDKNGKVTIKEVTVKVDPKTGKIVEITPSA [r9_122_TrROS_Hall] | 1.74 ± 0.06 | 2.02 ± 0.04 | 1.8 ± 0.19
SKKVKPIATIDVEGMSLEELLAAIKAALPPGEKAIVRIVNADGEVRTIEIDAKTGEIKSLPPGARIYIYPSA [r9_853_TrROS_Hall] | 2.1 ± 0.027 | 1.95 ± 0.035 | 2.02 ± 0.048
SKKVTIMIMIRRRDPEDGKYRPIPPEFILEMVRRARKKGKKVKITFMNPDNPWAKRLAKRAKEEGIKIEWSA [r9_468_TrROS] | 2 ± 0.05 | 2.1 ± 0.14 | 2.1 ± 0.11
SKLKIEEIEINPNMPYTISVKLPDGFYISIQYDPGKPDQMKMNIFPPDGKKREHTIPANEPIRINFEIEPSA [r9_875_TrROS] | 1.35 ± 0.034 | 2.55 ± 0.04 | 2.19 ± 0.12
SKLPPGQPYRRVEMTITFDFKSPKELRKKIRELFGKIEVDMKHNPEDNWYTIDIWFPSPAVMDELKELIFSA [r9_764_TrROS] | 3.06 ± 0.17 | 3.29 ± 0.061 | 3.07 ± 0.23
SKLVEKIAEEFGISSAMPHPDGQFMIMFPDGYMIKINIEIDEVKPKPDGKPELDLDIEIEIIPMPPPDDMSA [r9_648_TrROS] | 2.05 ± 0.067 | 2.74 ± 0.072 | 2.39 ± 0.19
SKPDAPKIVELLRELFPDLEITSVSYDPETGTYTVTFPDGVVAEVHVDPNGNVHIVLRTPTSERTFTLPVSA [r9_304_TrMRF] | 2.68 ± 0.1 | 2.38 ± 0.043 | 2.55 ± 0.07
SKPETVTFPFNIPLKDMPLEDIKEEAKEWLRNFGYKVEKPEITPEMLKLLKDMPPGQEIPITITIKVEPKSA [r9_1163_TrROS] | 0.301 ± 0.12 | 1.08 ± 0.18 | 0.828 ± 0.085
SKPIPVKITIETKTNPNGEPITTITIDKGDKTYSLPLGNAKILEIDPEKQYIIIYNPETGSILILKPSDLSA [r9_1186_TrMRF] | 2.54 ± 0.059 | 3.14 ± 0.06 | 2.95 ± 0.058
SKPNLEVKEVEIKMTAEEIKKLLKPNVTKIEKVNGKYYVTVKVNGVLVKIEIKYDKETNEVTVKIYVIKPSA [r9_604_TrROS_Hall] | 2.37 ± 0.072 | 3.115 ± 0.03 | 2.88 ± 0.11
SKTIYIPKNVPIDYILKVVKEAEKKGKPVKIVIETYNNPKVIEALKKAGYKVEIKEDKKKKITLIVVYPESA [r9_759_TrMRF] | 3.33 ± 0.2 | 4.35 ± 0.11 | 4.2 ± 0.39
